The data set concerns the molecule itself. As to the kind of experiment: SEC. (In general: SEC sorts molecules by how far they enter the pores of the column.)

B1: Recombinant rat NADPH-cytochrome P450 reductase with a single amino acid mutation of K56Q (enzyme, UniProt P00388 1-678, looked up)
chain: MGDSHEDTSATMPEAVAEEVSLFSTTDMVLFSLIVGVLTYWFIFRKKKEEIPEFSQIQTTAPPVKESSFVEKMKKTGRNIIVFYGSQTGTAEEFANRLSKDAHRYGMRGMSADPEEYDLADLSSLPEIDKSLVVFCMATYGEGDPTDNAQDFYDWLQETDVDLTGVKFAVFGLGNKTYEHFNAMGKYVDQRLEQLGAQRIFELGLGDDDGNLEEDFITWREQFWPAVCEFFGVEATGEESSIRQYELVVHEDMDVAKVYTGEMGRLKSYENQKPPFDAKNPFLAAVTANRKLNQGTERHLMHLELDISDSKIRYESGDHVAVYPANDSALVNQIGEILGADLDVIMSLNNLDEESNKKHPFPCPTTYRTALTYYLDITNPPRTNVLYELAQYASEPSEQEHLHKMASSSGEGKELYLSWVVEARRHILAILQDYPSLRPPIDHLCELLPRLQARYYSIASSSKVHPNSVHICAVAVEYEAKSGRVNKGVATSWLRAKEPAGENGGRALVPMFVRKSQFRLPFKSTTPVIMVGPGTGIAPFMGFIQERAWLREQGKEVGETLLYYGCRRSDEDYLYREELARFHKDGALTQLNVAFSREQAHKVYVQHLLKRDREHLWKLIHEGGAHIYVCGDARNMAKDVQNTFYDIVAEFGPMEHTQAVDYVKKLMTKGRYSLDVWS
Take B1: the binding result was “binds”.

For the origin of these results see paper PMC2789667 (Biochemistry, 2009).
